Measurements: PMC6437208

Target: CsgB-His (curli nucleator CsgB with C-terminal poly-histidine tag) (E. coli) (UniProt P0ABK7)
UniProt P0ABK7, sequence (P0ABK7 22-151): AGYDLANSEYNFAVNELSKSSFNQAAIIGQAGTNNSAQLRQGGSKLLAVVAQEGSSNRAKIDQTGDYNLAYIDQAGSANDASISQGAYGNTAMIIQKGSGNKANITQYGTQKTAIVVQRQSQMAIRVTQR

- ThT assay: reduction of tau50 of R5 fibril formation in the presence of CB-origami: 1.5 h
Substance: CsgA R5 subunit domain peptide
